Test results as given in patent US7150969B2, “Alternatively spliced isoform of acetyl-CoA carboxylase 2 (ACC2)” (Rosetta Inpharmatics LLC, priority 2004, dated 2006).

Test system: CC(=O)SCCNC(=O)CCNC(=O)[C@H](O)C(C)(C)COP(=O)(O)OP(=O)(O)OC[C@H]1O[C@@H](n2cnc3c(N)ncnc32)[C@H](O)[C@@H]1OP(=O)(O)O
Assay: purified protein, by the assay type
Conditions: other: 37° C., 40 minutes, pH 7.5, 20 mM citrate

Substance | Km
ACC2 (Homo sapiens) | 108 µM
ACC1 (Homo sapiens) | 51 µM
